These results are taken from patent US20230226096A1 (Orna Therapeutics, Inc., priority 2020, published 2023).

To fix the notation:
B1: Picornavirales Tottori-HG1 (nucleic acid)
DNA: AGCCATGAACTAGTGTGCGATTCCCACAGTGTTGGTCGAAAGCCCCGCACTGTCTACTCGCATATTTGACTCCAGTCCTTCCGCAGCCAGCGGTTAGGTTCTGGTTAAAGTGCATTATGTGCACGGCGCCACGCAGAACTGCCAGAAATGGTAAGCTGCGCCCAACGCCAACGGTTTGTGTATCCCGTTAGTCACACGTTTACAGCTGTTCGTTAACAGTAGGGTTTTGTCGACCCGGACCCCTTAATGCGCGCGAATTCAACCGCGCCTAGTCGGCAATGGTATCATTTAATCCCATGCACTACGGGAGAAATTTGAGACCAAAGAATTCCTGAGGGCCACTGCTTGCTCTAAGTGCAATGCCTCGGGAGACTTCTGTCAGGAGCCTAGCGGCTTTCAACCGCGACAGCTAACTCCTGCGGGATGTTTGGTGTCCATACTTACTGGCGTCCTCACAACGCTAAGTGGATGTTGTCCACAGGTAGGCAAACACCGAGCCCCACATTCAGGAGACCTGTATGAACGATCCTATCAGCATTAGAGTTGGAATTGGGTGTGCTAACGTCCGCATAAGTGCACCCCGTGGTAACGCTGGGAAACTATCCAGCGCAACGTACTGTCCTCAATGTCTAGGGAAGGACCGCCCTAAGCGTACAACCGGGCCATGTGTCGAGC
B2: Pestivirus strain Aydin (nucleic acid, listed as Pestivirus sp.)
DNA: GTATACGAGATTAGCTCATACTCGTGTACAAATTGGACGTAGCAAATTTAAAAATTCGGATAGGGTCCCCATCCAGCGACGGCCGAACGGGGTTAACCATACCTCTAGTAGGACTAGCAGACGGATGGACTAGCCACAGTGGTGAGCTCCCTGGGAGGTCTAAGTTCTGAGTACAGAACAGTCGTCAGTAGTTCAACGCTGGTAAACCCCAGCCTTGAGATGCTACGTGGACGAGGGCATGCCCAAGACACACCTTAACCTGGACGGGGGTCGTCCAGGTGAAAGTACCCATCTTTGGGTGCTGGGAGTACAGCCTGATAGGGCGCTGCAGAGGCCCACTGACAGGCTAGTATAAAAATCTCTGCTGTACATGGAAC
B3: Phopivirus strain NewEngland (nucleic acid)
DNA: GGGAGTAAACCTCACCACCGTTTGCCGTGGTTTACGGCTACCTATTTTTGGATGTAAATATTAATTCCTGCAGGTTCAGGTCTCTTGAATTATGTCCACGCTAGTGGCACTCTCTTACCCATAAGTGACGCCTTAGCGGAACCTTTCTACACTTGATGTGGTTAGGGGTTACATTATTTCCCTGGGCCTTCTTTGGCCCTTTTTCCCCTGCACTATCATTCTTTCTTCCGGGCTCTCAGCATGCCAATGTTCCGACCGGTGCGCCCGCCGGGGTTAACTCCATGGTTAGCATGGAGCTGTAGGCCCTAAAAGTGCTGACACTGGAACTGGACTATTGAAGCATACACTGTTAACTGAAACATGTAACTCCAATCGATCTTCTACAAGGGGTAGGCTACGGGTGAAACCCCTTAGGTTAATACTCATATTGAGAGATACTTCTGATAGGTTAAGGTTGCTGGATAATGGTGAGTTTAACGACAAAAACCATTCAACAGCTGTGGGCCAACCTCATCAGGTAGATGCTTTTGGAGCCAAGTGCGTAGGGGTGTGTGTGGAAATGCTTCAGTGGAAGGTGCCCTCCCGAAAGGTCGTAGGGGTAATCAGGGGCAGTTAGGTTTCCACAATTACAATTTGAA
B4: Pigeon picornavirus B (nucleic acid)
DNA: TTTATTTAGCTGTTAAGTTTTATTTGTGCCGAGACCCCATAGTAGGATCTTGGTGTTCCACATTAAGCTCTCCCGACCACACATCCAAACGATAGGCGGTGTAAGGGCTCCCTGGCTAAGTGTTTACTCATTGCTAGGGAAGTGTTGCGACCCGTTACCAGTAGGAATACAGGAGGTCTTAGTTGCCTAACCAGATAAAGTGGTGCTGAAATATTGCAAGCTCAATGTCTGGCGAACGACGGACTACCGTTGAACTATTGTTAACGCCCGCGTGTGTAGGCAACACACGGGTTAGTAGGTCACTTACATTGACATCCGTGCCGGGAAAGCGGATCTGAGCTATCGATTGCCTGATAGGGTGCCGGCGGGCGCGGTACGTGTGGTATAGTCCGCTGTCTTGGGGTATGGCGTCTACTCGGTTTTGTTGTCGTTTTGGAATGTCCCATGTCGGAGATGTCGTTACCGGTGTTTGCTTTACTTGTGCACGAATAAGAAAACAGAGTTTGGAGTTTTGGAAGTTAATGGATAACATCAAGTTTCCATTGCGTTCCTCGTGCATTTTAGGCCAGAAAATCGACCACAAAATCGAGA
B5: Rodent hepatovirus (nucleic acid, listed as Hepatovirus sp.)
DNA: TTCAAAGAGGGGTCCGGGATTTTCCTGGTCCCCCTCTTTGGGCACCCTTGGCTCGGGGGTGTGAATACCGTGCTCGCGTTTGCCGTGCGTTAACGGCTTCATTTATGTTTGTTTGTCTGTTTTATTATGTTGGTTTGTCTGTTTGTTATGTTGGTATTGTTCGTGTTTAATGTTATGACCACATTACACTCCAGCCAATGAAGAACAGATGGTGCGGTTATTGCTGGCGGAATTCCTAACGTCCTGGATCCGTTGGTACGCATCACAAAACAATTTGCAGAGAGAGTGGTGAAACGGCTTGGGAATCCCTGAGTACAGGGAAATCACACTGATAGCTCATCTTGGCTGTTTTCAGTCATGGACCTTATGCAGTGTAATTTGGGTGTACCCCCCATAGCTTAGGAGGAATGTTCTGTCTTGGCACTAGAGTGGGACGCTGATGCCTCCGTGTCTAGGATGGTCTAAGGGACAGAATGGGGTGCCTCTGATGCCATACTACCTGATAGGGTGCTCTCACGGCCTCTGCATCTTAGTGAGAAGTTCAATTTT
B6: Porcine reproductive and respiratory syndrome virus 2 (nucleic acid)
DNA: ATGACGTATAGGTGTTGGCTCTATGCCTTGGCATTTGTATTGTCAGGAGCTGTGACCATTGGCACAGCCCAAAACTTGCTGCACAGAAACACCCTTCTGTGATAGCCTCCTTCAGGGGAGCTTAGGGTTTGTCCCTAGCACCTTGCTTCCGGAGTTGCACTGCTTTACGGTCTCTCCACCCCTTTAACC
B7: Ludopivirus (nucleic acid, listed as Ludopivirus sp.)
DNA: TAGACCCCCACCTAGCCCTTTTCCCCGTCAGTGGGGGGCTTACTCACTGGGCATCTGTTAATCTGGCCTAACTAGATTGACACCACTCCCTTGGAACGTAACTCCACGCTAACTCACTGGCTCTACGCACAGACACACGGTCTTTCTGCTATCCCCGGGGAAGATACCAGATGGCGACCGGCTGTCCCAGCGGCCTAGTAGCTACTCGGGTTGAGTACCCACCACGGTTTTGACGCCTGCTAAAATTCAAGAGACAGAGGTAGGGGTGCTTAGTGTGTGGGGGAAGTTCCCACAAGCGAGGCAAAGCATTGCTCCCTCGCGTCACCGGGTGCAAGGTAAATTGGCTGGACTTCCGCTCTACCCTTGCTACTCGCCCTCTTCGGAGGGTTCGAAGTGACACTAGGTATACGCATGGTTGGGAAACCATGCCTGGCCTACTACTGGGTGATAGCCTGGCGGCGGGTCCGTCTCTTGGCTTATACCCGTTGATTTGGGAT
B8: Porcine enterovirus 9 (nucleic acid, listed as Enterovirus sp.)
DNA: GAACCTTAGAAGTTTACACAAACAAAGACCAATAGGAGTCCAACACCCAGTTGGATTGCGGTCAAGCACTTCTGTTTCCCCGGACCTAGTAGTGATAGGCTGTACCCACGGCCGAAGATGAACCCGTCCGTTATCCGGCTACCTACTTCGGGAAGCCTAGTAACATTCTGAAGTCTCTGAGGCGTTTCGCTCAGCACGACCCCGGTGTAGATCGGGCTGATGGGTCTCCGCATACCCCACGGGCGACCGTGGCGGAGGCCGCGTTGGCGGCCCGCCTATGGCGAAAGCCATAGGACGCCTCTTAGATGACAGGGTGTGAAGAGCCTACTGAGCTGGGTAGTAGTCCTCCGGCCCCTGAATGCGGCTAATCCTAACCACGGAGCGTCCACCAGCAATCCAGCTGGCAGGGCGTCGTAACGGGCAACTCTGTGGCGGAACCGACTACTTTGGGTGTCCGTGTTTCCTTTTGATCCTATTTTGGCTGCTTATGGTGACAACGATAAGTTGTTATCATAAAGCTCTTGGGTTGGCCACCTGGAAAAAGTTATCAGTGTTTGATATTGTTCGGCTCTCACGCCTACCAATAAGACAAGCCCTATATTTACTTGTTGCATTTTACTCGTCAGAAGAAATCACAGAGTATCATTTGGATTTGTTACTCACATTAAGGACAAG
B9: Picornavirus HK21 (nucleic acid)
DNA: AAACGGGAGGATCGGCTTTGGCTTATCCTCTTAATAGTCTACAAAACTGGGCTGACTGGTGGGGGAGCTACTAGATCCGGGAGAGGACTAGTTACCCCGCGTAACTTCCCTTTTTGTCACTCCCTCCACCTACCCCTTCCCTGTCCCTTAGACTCTTAAGTAGGTGTGCAGGCCTGGCCCCCCGGAAATGGGCAAATCGGACGTTTGCGTGTAGGGTCGTTCTGAAAGGTGGGGCCCACTCCACCGTAGTAGGATCTTCCTGTTTCACGTTTAAACCTCTCCGGGCAGGTATCGCTAGACACTAGGCTGTATAGGATGGCACGCACTTAGGTTTCGCACCTTCCTAGTGCGCCAAGATCCCGCTTTTGAGCTCAAGTACATGGTTCTTTGTAAGATGTCTAACCAGAGGAGGTGGTGCTGAAATATTGCAAGCCACTCTGGCGAACGTCCACTGCATTGCCTGGAACAGGCTCTCTAGCGCCCTCCACTGGTAGCGCGGTGGTGGGTTAGTAGGATACCTATATGGACAGGGGATGCGGGAATACCCCTCACTAGCTAGTGACTGGTTGATCGACTGGCGGCGGATCCAGTGATACTTGCATAATCCGCAGACTTGGGAG
B10: Quail picornavirus QPV1 (nucleic acid)
DNA: TTTGCATCAGTTCGCCCCTCCCCTCACCATACCTTTTTCCCCTCTTTAGGACTGATACTTGGTTATGATGAGCAGAGGATTTCGCAAGTTATGCTTCTTGATAAAAAGTAATTCACGAATCATGGGATTATAGCCTGGAAGTGAACACTCATGTGGCAAGTGGGTTAGTAGCTCTCCATGTTCCCATGTGCAGTGGACTGACAACAGTGAGTTCGGGGTTGTGTAGTAAAGGGAAAGTATTACTTACCCGCACCTGCTATACGTGGTGTACGTAGGATACGAGTTAGTAGTGCTTAGCAACTTTAAACTGGTGCTGAAATATTGCAAGGTCACTGAAGTTGTGAACGCGAACGCTCCGCCACTGCCATGTATAGCGTGCAATGCATAAATGGTGCACTACATGATACGAGGGAATGGGAAACCCTCCATGGCCGAATGCAGGGTGACAGCCTGCCGGCGGATGCCTGTTGTTAGTATAATCCGTTGTTTGCCAC

The test system of the data set is HEK293 cells. Type of data set: cell-based, human. The note with it: luminescence from secreted Gluc in supernatant 24 hours after transfection of HEK293 cells; circular RNA encoding Gluc with the named IRES (UTR truncated to 675 nt).
The molecule B1 displayed an Expression of 9.54E+04. As to B2, the Expression is 3.11E+06. Then B3, with 1.06E+05; and B4, with 1.24E+05; and B5, with 1.39E+05. With B6, the Expression is recorded as 1.29E+05.

B7 yielded an Expression of 1.05E+05.

Take B8: the Expression was found to be 3.20E+07.

The molecule B9 yielded an Expression of 4.09E+05. Consider B10, for which the Expression is given as 6.55E+07.
